The nature of the series: soluble on expression in E. coli; label from the status in PepcDB or PDB records.
As for “MGSSHHHHHHSSGLVPRGSHASMAAEMDWDKTVGAAEDVRRIFEHIPAILVGLEGPDHRFVAVNAAYRGFSPLLDTVGQPAREVYPELEGQQIYEMLDRVYQTGEPQSGSEWRLQTDYDGSGVEERYFDFVVTPRRRADGSIEGVQLIVDDVTSRVRARQAAEARVEELSERYRNVRDSATVMQQ”, the “soluble on expression in E. coli” value is reported as “soluble”.

On to “MSLEPYAAKAHEGYLRNLMLRYSERHEQLMVNIVTSWYDKALMQALKERLEAAMPEQQMTLLNNVTTRKNTVATGEQEYVISGDGYVTERLGDLDFRISANSFFQTNTRQAETLYDQIIAVGGITPEDTVYDLYCGTGTITLYLARHCKQAIGIEVVESAVKDAEMNAELNGLSNTVFFQADLKNFHAMQEALEPYAKPRIIVTDPPRAGMHPKALDTMLKLQPERIVYVSCNPDNLARDGKEIAARGYRMTSAQPVDMFPQTNHIETVACFERAEGHHHHHH”, for which the “soluble on expression in E. coli” value is reported as “not soluble”.

In the case of “MRRCCGDLAASRGGCEPASRNLTRTRLTFAALGRINRPAEHDREDAMTRQEARDHEPRDQDAALSRRTLVRGLALGAAATMAGPALAQTGPAAPPTTITTPPRDFGPNGAPTTYFWDPDIIAVDPSFDDLAQPNTAIKRLYTGVLWAEGPAWSAQGRYLLWSDIPNNRQMRWSEDDGRISVFRSPSNNSNGNSFDFQGRQLSCEHLTRRVTRYEHDGTATVLCDNYNGKKLNSPNDVVAHPDGSYWFTDPPYGGQLYEGEPDAAGGPSNSGGKLNPRIGQPAGFTPGKRELPTNCYRIDPSGRVDLVVTEEQVPDPNGLCFSPDFKKLYVVSTGKGPGDSGPGGKGEIFVFDVGADNKLSNQKRFSDCTIDGVKCGPDGVRCDVNGNVWASSNAGRAVGYSGVTVWSPEGKLLGRIRLPEVCGNICFGGPKRNRLFMAASQSLYAVFTATQGAGPGLEHHHHHH”, the “soluble on expression in E. coli” value is recorded as “soluble”.

In the case of “METADTYTIVLTERNMGYAGQFYMVSKEGIGEAPISVGSGYGNPLMFSIKAVGSVTKGIMNDPYGEIGIRGPYGNVWPWKSYEHVVAIAGGIGIPPIKALIEDMQGHTSLDKLTVLYGARSPSDIVYRSEIETWKEEMDFRITVDKGDENWRGHVGVVTTLVPEIKEYNHGAAFVIGPPVMMKFSVKSLLDAGFAEDNIYLSLERRMECGIGVCGHCNIGRWYACEDGPIFKYSDTKEEPELFL”, the “soluble on expression in E. coli” value was “not soluble”.

With “GMIGDGIENSPLLTDLAFPYRLLGAGKESRECLFLLHGSGVDETTLVPLARRIAPTATLVAARGRIPQEDGFRWFERIDPTRFEQKSILAETAAFAAFTNEAAKRHGLNLDHATFLGYSNGANLVSSLMLLHPGIVRLAALLRPMPVLDHVPATDLAGIRTLIIAGAADETYGPFVPALVTLLSRHGAEVDARIIPSGHDIGDPDAAIVRQWLAGPIAIAQAD”, the “soluble on expression in E. coli” value was “soluble”.

With “MEEKLLVNLKENSYNIFIKKNILKNIGEEIKKIYFGNKIFIVTDENIAKLYLDKVKNNLSESGFEIKSLILKSGEETKSFNTLPKIYDSLLDFKLTRKDLIITLGGGVIGDLGGFAAATFLRGISFIQIPTSLLAQVDSSVGGKVGVDLERGKNLVGSFYQPKAVFIDPNVLLSLPEKFYRDGMAEVIKYGCIKDKTFFNKLLSLKNREEVMQHIEYIIHKCCFIKKTVVEADEKDFGDRMLLNFGHTLGHAIEKYYNFTGYTHGEAVAIGMYKITLESEKIGITKKGTSELIKSILMNYNLPYEIELRDNKSIVDAISLDKKNLGDTLKIILLKDIGESIIYNTTSKFFQEVR”, the “soluble on expression in E. coli” value is given as “not soluble”. “MKIARLNLWHVPLTSHTAYYMADGKTCDTVETVVIAVQTDTGITGWGEVCPIPHYLPAYARGVAPALTELAPVILGADPVGVGALMERVDAVLHGHPYAKSALDIALWDITGQVAGLPLHALLGGWRAADMPLYHSITCIAPDDMARIAREAQAQGITQFQVKLGASGDWQTDVERLAKVREAVGPGPLVYGDWNCGATSLEAIRVGRAVAQLDIMLEQPCATLEDCARVQRATGLPMKIDELAHDTASLLTAHRLGIMDAVALKLSKFGGLSTTRRARDLCLHLGARMCIEDTWGSDITTAALLHLGAASEPGRVLNVCDLSGYVAPRLAPDAPVRANGRIAPPEGAGLGITVDRGALGVPDLILD”: the “soluble on expression in E. coli” value is given as “soluble”.

The record behind these values is the DeepSol protein solubility set.
